Patent publication US20170260534A1 (ANAEROPHARMA SCIENCE, published 2017)
Where a chain is given by its changes, count along the chain named. Names may count otherwise.

Key:
[1] = molecular target: T1, Recombinant Human CTLA-4-Fc Chimera (BioLegend) (human, UniProt P16410 36-161, limits assumed); test: SPR (Biacore), Fc-fused hCTLA-4 captured by anti-human IgG (Fc), scFv as analyte, single cycle kinetics
T1 construct: Bought reagent; also called hCTLA-4; hCTLA-4 immobilized; not shown: human IgG1 Fc
T1 sequence (looked up): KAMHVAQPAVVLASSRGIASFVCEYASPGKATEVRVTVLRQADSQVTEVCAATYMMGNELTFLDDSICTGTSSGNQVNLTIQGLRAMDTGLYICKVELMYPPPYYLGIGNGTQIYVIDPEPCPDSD
Description: The binding kinetic parameter of each hCTLA-4scFv01-FLAG purified to hCTLA-4 (fusion protein with human IgG1Fc) was measured by surface plasmon resonance using Biacore system (manufactured by GE Healthcare). To a substrate having a carboxyl methyl dextran-coated gold membrane, a mouse anti-human IgG (Fc) monoclonal antibody (manufactured by GE Healthcare) was bound in accordance with amine coupling, and Fc-fused recombinant hCTLA-4 (Biolegend) was captured as a ligand. As an analyte, scFv purified was used. Samples of scFv having a concentration of 0.7404, 2.2222, 6.6667, 20 and 60 nM were prepared and sequentially subjected to binding in order of increasing concentration in accordance with single cycle kinetics. Data obtained were analyzed by BIA evaluation software (manufactured by GE Healthcare).
The binding kinetic parameter to hCTLA-4 (fusion protein with human IgG1Fc) was measured by surface plasmon resonance using Biacore system. Thereafter, analysis was carried out in the same manner as in Example 29.

[2] = molecular target: T2, human PD-1 overexpressed on HEK293T cells (human, UniProt Q15116 25-288); test: flow cytometry on HEK293T cells overexpressing hPD-1; anti-hCTLA-4scFv01-FLAG purified from PC4, used as in Example 24 (biotinylated Protein L and Brilliant Violet 421 Streptavidin) [d]
T2 construct: whole, on cells; also called hPD-1 expressing cells; human PD-1 overexpressing cell

[3] = molecular target: T1, Recombinant Human CTLA-4-Fc Chimera …; test: ELISA, antigen-Fc immobilized, scFv at 1 ng/mL
Description: (§1) After the liquid was removed, 1×PBS (350 μL) for each was dispensed and the liquid was removed. This operation was repeated three times for washing. To each of the plates, 1% BSA solution (350 μL) was dispensed at room temperature and incubated for 2 hours for blocking. After the liquid was removed, 1×PBS (350 μL) for each was dispensed and the liquid was removed. This operation was repeated three times for washing.
(§2) To blank wells, the signal enhancing reagent alone was dispensed in an amount of 100 μL. […] After the liquid was removed, 1×PBS (350 μL for each) was dispensed and the liquid was removed. This operation was repeated three times for washing.
(§3) The plates were shielded from light and incubated at room temperature for 20 minutes. […] Absorbance was measured at 450 nm and 570 nm (reference wavelength).

[4] = molecular target: T3, mPD-1 (Fc Chimera, R&D Systems) (mouse, UniProt Q02242 25-167); test: ELISA, antigen-Fc immobilized, scFv at 1 ng/mL
T3 construct: Species read from the label mPD-1 only; also called mPD-1 immobilized; Fc part of the bought chimera not given
T3 sequence (looked up): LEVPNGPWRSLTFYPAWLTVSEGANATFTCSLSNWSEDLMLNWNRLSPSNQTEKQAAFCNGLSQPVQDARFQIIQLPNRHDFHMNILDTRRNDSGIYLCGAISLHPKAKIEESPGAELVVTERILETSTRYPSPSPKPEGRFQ
Description: as §1, §2, §3

[5] = molecular target: T1, Recombinant Human CTLA-4-Fc Chimera …; test: ELISA, antigen-Fc immobilized, scFv at 10 ng/mL
Description: as §1, §2, §3

[6] = molecular target: T3, mPD-1 (Fc Chimera, R&D Systems); test: ELISA, antigen-Fc immobilized, scFv at 10 ng/mL
Description: as §1, §2, §3

[7] = molecular target: T1, Recombinant Human CTLA-4-Fc Chimera …; test: ELISA, antigen-Fc immobilized, scFv at 100 ng/mL
Description: as §1, §2, §3

[8] = molecular target: T3, mPD-1 (Fc Chimera, R&D Systems); test: ELISA, antigen-Fc immobilized, scFv at 100 ng/mL
Description: as §1, §2, §3

[9] = molecular target: T1, Recombinant Human CTLA-4-Fc Chimera …; test: ELISA, antigen-Fc immobilized, scFv at 1000 ng/mL
Description: as §1, §2, §3

[10] = molecular target: T3, mPD-1 (Fc Chimera, R&D Systems); test: ELISA, antigen-Fc immobilized, scFv at 1000 ng/mL
Description: as §1, §2, §3

T2 sequence (Q15116 25-288): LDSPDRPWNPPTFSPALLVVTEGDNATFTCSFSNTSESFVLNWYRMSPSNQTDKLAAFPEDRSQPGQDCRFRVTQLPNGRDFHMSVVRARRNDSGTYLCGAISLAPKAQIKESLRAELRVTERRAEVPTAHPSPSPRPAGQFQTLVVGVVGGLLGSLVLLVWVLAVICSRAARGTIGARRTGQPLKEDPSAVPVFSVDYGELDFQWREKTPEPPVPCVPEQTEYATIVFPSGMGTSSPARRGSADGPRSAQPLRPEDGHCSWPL

B1: anti-hCTLA-4scFv01-FLAG purified from single-expression strain C1F or from co-expression strain PC4 (scFv)
scFv: ATLTPQVQLVESGGGVVQPGRSLRLSCAASGFTFSSYGMHWVRQAPGKGLEWVAVIWYDGSNKYYADSVKGRFTISRDNSKNTLYLQMNSLRAEDTAVYYCARDPRGATLYYYYYGMDVWGQGTTVTVSSGGGGSGGGGSGGGGSDIQMTQSPSSLSASVGDRVTITCRASQSINSYLDWYQQKPGKAPKLLIYAASSLQSGVPSRFSGSGSGTDFTLTISSLQPEDFATYYCQQYYSTPFTFGPGTKVEIKDYKDDDDK
notes: Plasmid pP30SP50L5-hCTLA-4scFv01-FLAG (pC1F) and pPC4; PC4 and PC6 secrete the same scFv as C1F; Signal peptide SP50 left out; also called scFv derived from C1F strain; hCTLA-4scFv01-FLAG purified from PC4 strain
B1 was tested, and the Kd [1] was 1.08 nM, the koff [1] was 0.000996 s⁻¹ and the kon [1] was 918000 M⁻¹ s⁻¹. B1: no binding (tested: 1 ug/mL) [2].

B2: anti-hCTLA-4scFv01-FLAG purified from single-expression strain C2F (scFv)
scFv: AQVQLVESGGGVVQPGRSLRLSCAASGFTFSSYGMHWVRQAPGKGLEWVAVIWYDGSNKYYADSVKGRFTISRDNSKNTLYLQMNSLRAEDTAVYYCARDPRGATLYYYYYGMDVWGQGTTVTVSSGGGGSGGGGSGGGGSDIQMTQSPSSLSASVGDRVTITCRASQSINSYLDWYQQKPGKAPKLLIYAASSLQSGVPSRFSGSGSGTDFTLTISSLQPEDFATYYCQQYYSTPFTFGPGTKVEIKDYKDDDDK
notes: Plasmid pP30SP67L1-hCTLA-4scFv01-FLAG (pC2F); PC2 and PC7 secrete the same scFv; Signal peptide SP67 left out; also called scFv derived from C2F strain
Binder B2 has a Kd [1] of 2.28 nM, a koff [1] of 0.00103 s⁻¹ and a kon [1] of 452000 M⁻¹ s⁻¹.

B3: anti-hCTLA-4scFv01-FLAG purified from single-expression strain C3F (scFv)
scFv: B2 scFv with A1D
notes: Plasmid pP30SP68L1-hCTLA-4scFv01-FLAG (pC3F); PC3, PC5 and PC8 secrete the same scFv; also called scFv derived from C3F strain
In the case of B3, the Kd [1] is reported as 2.97 nM, the koff [1] is reported as 0.00103 s⁻¹ and the kon [1] is reported as 347000 M⁻¹ s⁻¹.

B4: anti-hCTLA-4scFv01 (not tagged) of single-expression strain C1TLB (scFv)
scFv: ATLTPQVQLVESGGGVVQPGRSLRLSCAASGFTFSSYGMHWVRQAPGKGLEWVAVIWYDGSNKYYADSVKGRFTISRDNSKNTLYLQMNSLRAEDTAVYYCARDPRGATLYYYYYGMDVWGQGTTVTVSSGGGGSGGGGSGGGGSDIQMTQSPSSLSASVGDRVTITCRASQSINSYLDWYQQKPGKAPKLLIYAASSLQSGVPSRFSGSGSGTDFTLTISSLQPEDFATYYCQQYYSTPFTFGPGTKVEIK
notes: Plasmid pC1TLB; PC4TL and PC6TL secrete the same scFv; Signal peptide SP50 left out; also called scFv derived from C1TLB strain; anti-hCTLA-4scFv01 in culture supernatants of PC4TL and PC6TL
B4 gave a Kd [1] of 1.48 nM, a koff [1] of 0.00098 s⁻¹ and a kon [1] of 661000 M⁻¹ s⁻¹.

B5: anti-hCTLA-4scFv01 (not tagged) of single-expression strain C2TLB (scFv)
scFv: AQVQLVESGGGVVQPGRSLRLSCAASGFTFSSYGMHWVRQAPGKGLEWVAVIWYDGSNKYYADSVKGRFTISRDNSKNTLYLQMNSLRAEDTAVYYCARDPRGATLYYYYYGMDVWGQGTTVTVSSGGGGSGGGGSGGGGSDIQMTQSPSSLSASVGDRVTITCRASQSINSYLDWYQQKPGKAPKLLIYAASSLQSGVPSRFSGSGSGTDFTLTISSLQPEDFATYYCQQYYSTPFTFGPGTKVEIK
notes: Plasmid pC2TLB; PC2TL and PC7TL secrete the same scFv; Signal peptide SP67 left out; also called scFv derived from C2TLB strain; anti-hCTLA-4scFv01 in culture supernatants of PC2TL and PC7TL
B5 showed a Kd [1] of 0.98 nM, a koff [1] of 0.000961 s⁻¹ and a kon [1] of 981000 M⁻¹ s⁻¹.

B6: anti-hCTLA-4scFv01 (not tagged) of single-expression strain C3TLB (scFv)
scFv: B5 scFv with A1D
notes: Plasmid pC3TLB; PC3TL, PC5TL and PC8TL secrete the same scFv; Signal peptide SP68 left out; also called scFv derived from C3TLB strain; anti-hCTLA-4scFv01 in culture supernatants of PC3TL, PC5TL and PC8TL
For B6, the Kd [1] was 1.29 nM, the koff [1] was 0.000996 s⁻¹ and the kon [1] was 773000 M⁻¹ s⁻¹.

B7: anti-hPD-1scFv03 purified from the culture supernatant of co-expression strain PC1 (scFv)
scFv: DSAQTSAVVSSRSFPKASSVQVQLVESGGGVVQPGRSLRLDCKASGITFSNSGMHWVRQAPGKGLEWVAVIWYDGSKRYYADSVKGRFTISRDNSKNTLFLQMNSLRAEDTAVYYCATNDDYWGQGTLVTVSSGGGGSGGGGSGGGGSEIVLTQSPATLSLSPGERATLSCRASQSVSSYLAWYQQKPGQAPRLLIYDASNRATGIPARFSGSGSGTDFTLTISSLEPEDFAVYYCQQSSNWPRTFGQGTKVEIKHHHHHH
notes: Secreted from the cassette SP7L20-anti-hPD-1scFv03-His tag; also called anti-PD-1scFv03
Work on B7 yielded an OD value [3] of -0.062 OD, an OD value [4] of -0.059 OD and an OD value [5] of -0.055 OD. The OD value [6] was -0.057 OD, the OD value [7] was -0.018 OD and the OD value [8] was -0.049 OD. The OD value [9] was 0.341 OD and the OD value [10] was 0.107 OD.
